Drawing on patent US20240252617A1, this text covers Kd for one substance.

The test concerns the target monomeric SARS-CoV-2 receptor binding domain (RBD) (SARS-CoV-2) (UniProt P0DTC2).

For DH1047 antigen binding fragment (Fab), the Kd is under 0.02 nM.
